Source: the supplement of paper PMC9732359
± gives the uncertainty stated by the source.

Assay: protein stability index of a GFP-peptide fusion (yeast GPS) (PSI 1-4); higher = more stable; sorted into four equal gates, so the index is relative within each strain
Summary of the method: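 Tiled 17-residue yeast protein peptides were fused downstream of GFP in a plasmid that also expresses Cherry, and the pooled library was carried in yeast. Mid-log cultures in leucine-free medium were sorted into four equal gates by GFP/Cherry fluorescence ratio, and plasmids from each gate were PCR-amplified and Illumina-sequenced, with reads assigned to strains by barcodes. The protein stability index for each peptide was each gate's read frequency times its gate number, summed.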

LNRSHFATTKAECISLI [ECM29]
protein stability index (doa10∆): 1.51 ± 0.061
protein stability index (pdr5∆): 2 ± 0.051
protein stability index (san1∆): 1.69 ± 0.092
protein stability index (ubr1∆): 1.66 ± 0.038

KHLWDQKSLAALKKSRS [RPC17]
protein stability index (doa10∆): 2.75 ± 0.12
protein stability index (pdr5∆): 2.97 ± 0.072
protein stability index (san1∆): 2.92 ± 0.083
protein stability index (ubr1∆): 2.81 ± 0.07

VKLLKTTVPIVSKKRQK [POP3]
protein stability index (doa10∆): 3.2 ± 0.1
protein stability index (pdr5∆): 2.95 ± 0.069
protein stability index (san1∆): 2.87 ± 0.083
protein stability index (ubr1∆): 2.74 ± 0.07

QNDFLFSVGESLSVVAG [ECM29]
protein stability index (doa10∆): 2.61 ± 0.065
protein stability index (pdr5∆): 3.08 ± 0.12
protein stability index (san1∆): 2.92 ± 0.11
protein stability index (ubr1∆): 2.71 ± 0.061

LIERYYPKLTLDFQTNK [RPS17A]
protein stability index (doa10∆): 3.12 ± 0.074
protein stability index (pdr5∆): 3.01 ± 0.061
protein stability index (san1∆): 3.02 ± 0.045
protein stability index (ubr1∆): 2.74 ± 0.053

SKINSTELLDYATKLSK [MED4]
protein stability index (doa10∆): 2.79 ± 0.23
protein stability index (pdr5∆): 2.72 ± 0.12
protein stability index (san1∆): 2.49 ± 0.072
protein stability index (ubr1∆): 2.94 ± 0.15

EIELKKLPKVYKRSIVR [SWI1]
protein stability index (doa10∆): 2.11 ± 0.069
protein stability index (pdr5∆): 1.86 ± 0.071
protein stability index (san1∆): 2.68 ± 0.099
protein stability index (ubr1∆): 2.91 ± 0.074

VNDRYQIPTPNNTVDPG [CSI1]
protein stability index (doa10∆): 1.44 ± 0.059
protein stability index (pdr5∆): 1.71 ± 0.075
protein stability index (san1∆): 1.71 ± 0.13
protein stability index (ubr1∆): 1.55 ± 0.048

DLSRIMDWLDNWGRKEH [ITC1]
protein stability index (doa10∆): 3.31 ± 0.2
protein stability index (pdr5∆): 3.33 ± 0.26
protein stability index (san1∆): 3.48 ± 0.14

TLDDLVTKWTNQLTESA [YJL041W/NSP1]
protein stability index (doa10∆): 2.76 ± 0.1
protein stability index (pdr5∆): 3 ± 0.099
protein stability index (san1∆): 2.85 ± 0.076
protein stability index (ubr1∆): 3.05 ± 0.061

TEDQKVTTNINWRSFNA [SRP68]
protein stability index (doa10∆): 3.13 ± 0.097
protein stability index (pdr5∆): 3.16 ± 0.074
protein stability index (san1∆): 3.1 ± 0.058
protein stability index (ubr1∆): 3.21 ± 0.049

MLRTVTSKTVSNQFKRS [COR1]
protein stability index (doa10∆): 3.11 ± 0.15
protein stability index (pdr5∆): 2.9 ± 0.092
protein stability index (san1∆): 2.92 ± 0.083
protein stability index (ubr1∆): 3.02 ± 0.1

SNGGNNMLPQRQSSVGS [SNF2]
protein stability index (doa10∆): 1.76 ± 0.067
protein stability index (pdr5∆): 2.18 ± 0.097
protein stability index (san1∆): 2.19 ± 0.076
protein stability index (ubr1∆): 2.55 ± 0.045

NKTVNEAAKPSLSFGSG [YJL041W/NSP1]
protein stability index (doa10∆): 3.5 ± 0.13
protein stability index (pdr5∆): 3.01 ± 0.083
protein stability index (san1∆): 2.08 ± 0.21
protein stability index (ubr1∆): 3.21 ± 0.078

LLNTDHTLDPSLLESGS [RPO21]
protein stability index (doa10∆): 2.93 ± 0.085
protein stability index (pdr5∆): 2.94 ± 0.099
protein stability index (san1∆): 2.99 ± 0.079
protein stability index (ubr1∆): 3.17 ± 0.059

QNENLPSDKSDSMVDKE [SSN2]
protein stability index (doa10∆): 3.07 ± 0.13
protein stability index (pdr5∆): 2.64 ± 0.096
protein stability index (san1∆): 2.73 ± 0.091
protein stability index (ubr1∆): 2.57 ± 0.077

MKESVVEINSSESDLDE [ESC2]
protein stability index (doa10∆): 3.35 ± 0.071
protein stability index (pdr5∆): 3.06 ± 0.086
protein stability index (san1∆): 3.06 ± 0.079
protein stability index (ubr1∆): 3.16 ± 0.068

TKVNNQLIKVAVHNGGR [RPL9A]
protein stability index (doa10∆): 1.92 ± 0.074
protein stability index (pdr5∆): 1.52 ± 0.06
protein stability index (san1∆): 1.78 ± 0.086
protein stability index (ubr1∆): 2.4 ± 0.029

IRKIVRKDENQFSYVDS [AAR2]
protein stability index (doa10∆): 3.18 ± 0.12
protein stability index (pdr5∆): 3.14 ± 0.12
protein stability index (san1∆): 3.03 ± 0.073
protein stability index (ubr1∆): 3.12 ± 0.076

HMSTYLKIYKVGDIVDI [RPL21B]
protein stability index (doa10∆): 1.69 ± 0.036
protein stability index (pdr5∆): 1.64 ± 0.037
protein stability index (san1∆): 1.95 ± 0.052
protein stability index (ubr1∆): 1.95 ± 0.036

SVLQLFQSVQLNINNPN [SMC2]
protein stability index (doa10∆): 1.88 ± 0.049
protein stability index (pdr5∆): 1.89 ± 0.045
protein stability index (san1∆): 1.68 ± 0.058
protein stability index (ubr1∆): 1.48 ± 0.04

NGNWEVGVHIADVTHFV [DIS3]
protein stability index (doa10∆): 2.55 ± 0.052
protein stability index (pdr5∆): 2.09 ± 0.061
protein stability index (san1∆): 2.9 ± 0.047
protein stability index (ubr1∆): 2.62 ± 0.048

RNSPFWWTNSHHDGKLW [PRP8]
protein stability index (doa10∆): 2.55 ± 0.069
protein stability index (pdr5∆): 2.85 ± 0.06
protein stability index (san1∆): 2.68 ± 0.041
protein stability index (ubr1∆): 2.78 ± 0.049

LLFFNFSHSLTTILSFS [NUT1]
protein stability index (doa10∆): 1.41 ± 0.046
protein stability index (pdr5∆): 1.41 ± 0.034
protein stability index (san1∆): 1.46 ± 0.059
protein stability index (ubr1∆): 1.37 ± 0.033

GKRQVLLRPSSKVIIKF [RPS22B]
protein stability index (doa10∆): 2.83 ± 0.1
protein stability index (pdr5∆): 2.21 ± 0.055
protein stability index (san1∆): 3.25 ± 0.057
protein stability index (ubr1∆): 2.15 ± 0.049

IVVATEHNPSAHTASVG [COR1]
protein stability index (doa10∆): 2.7 ± 0.07
protein stability index (pdr5∆): 2.46 ± 0.088
protein stability index (san1∆): 2.27 ± 0.06
protein stability index (ubr1∆): 1.77 ± 0.037

GLSAREAVKQAAKIIYL [PRE10]
protein stability index (doa10∆): 2.86 ± 0.096
protein stability index (pdr5∆): 2.59 ± 0.063
protein stability index (san1∆): 2.59 ± 0.1
protein stability index (ubr1∆): 2.52 ± 0.053

VRIDKALELDDTVVSRV [ECM29]
protein stability index (doa10∆): 2.92 ± 0.11
protein stability index (pdr5∆): 2.91 ± 0.15
protein stability index (ubr1∆): 3.13 ± 0.097

SFAIYSSTIDAPAFHTS [SRB8]
protein stability index (doa10∆): 2.21 ± 0.055
protein stability index (pdr5∆): 2.21 ± 0.056
protein stability index (san1∆): 2.03 ± 0.065
protein stability index (ubr1∆): 2.25 ± 0.045

GSAATSGFEFSKEDTLR [RPN1]
protein stability index (doa10∆): 2.61 ± 0.15
protein stability index (pdr5∆): 3.14 ± 0.16
protein stability index (san1∆): 2.72 ± 0.15
protein stability index (ubr1∆): 3.08 ± 0.13

STLLCTDLESKSRMINF [SNU114]
protein stability index (doa10∆): 2.62 ± 0.05
protein stability index (pdr5∆): 2.96 ± 0.052
protein stability index (san1∆): 2.67 ± 0.044
protein stability index (ubr1∆): 2.79 ± 0.038

CSIEPIAAKLINSGLYS [YML103C/NUP188]
protein stability index (doa10∆): 1.77 ± 0.066
protein stability index (pdr5∆): 1.29 ± 0.065
protein stability index (san1∆): 1.67 ± 0.12
protein stability index (ubr1∆): 1.19 ± 0.062

KLEAEEIPSEDQNEFLL [FAS2]
protein stability index (doa10∆): 2.62 ± 0.13
protein stability index (pdr5∆): 1.75 ± 0.092
protein stability index (san1∆): 2.25 ± 0.11
protein stability index (ubr1∆): 3.51 ± 0.16

DHHPEGLSAREAVKQAA [PRE10]
protein stability index (doa10∆): 3.02 ± 0.095
protein stability index (pdr5∆): 2.53 ± 0.066
protein stability index (san1∆): 2.67 ± 0.082
protein stability index (ubr1∆): 2.69 ± 0.049

FNYNIFMHDPSVFYNIA [SIR2]
protein stability index (doa10∆): 1.46 ± 0.055
protein stability index (pdr5∆): 1.69 ± 0.037
protein stability index (san1∆): 1.5 ± 0.073
protein stability index (ubr1∆): 1.76 ± 0.048

LPNEMSQNDGFVIIRGS [RPO31]
protein stability index (doa10∆): 3.07 ± 0.19
protein stability index (pdr5∆): 3.13 ± 0.16
protein stability index (san1∆): 3.23 ± 0.18

LAIADSPQKFETNLQTF [ECM29]
protein stability index (doa10∆): 2.96 ± 0.11
protein stability index (pdr5∆): 3.3 ± 0.098
protein stability index (san1∆): 3.25 ± 0.048
protein stability index (ubr1∆): 2.79 ± 0.091

LGPLFKKIVDDTIMENP [IRR1]
protein stability index (doa10∆): 2.62 ± 0.071
protein stability index (pdr5∆): 2.88 ± 0.066
protein stability index (san1∆): 2.44 ± 0.13
protein stability index (ubr1∆): 2.82 ± 0.063

EREVFVDVKPKSPKERE [RPC25]
protein stability index (pdr5∆): 2.98 ± 0.17
protein stability index (ubr1∆): 3.34 ± 0.13

RTIGIAVDHRRQNRNQE [RPL13A]
protein stability index (doa10∆): 2.65 ± 0.18
protein stability index (pdr5∆): 2.7 ± 0.13
protein stability index (san1∆): 3.14 ± 0.16
protein stability index (ubr1∆): 2.86 ± 0.22

FEVEMILMQQQMMARMA [SRP54]
protein stability index (doa10∆): 1.17 ± 0.12
protein stability index (pdr5∆): 1.19 ± 0.076
protein stability index (san1∆): 2.34 ± 0.15
protein stability index (ubr1∆): 1.73 ± 0.27

EVFEFKTFNKIQSQVFE [BRR2]
protein stability index (pdr5∆): 3.29 ± 0.19
protein stability index (ubr1∆): 3.08 ± 0.22

KEEISDQKPIEHIKEGS [SWI3]
protein stability index (doa10∆): 2.96 ± 0.053
protein stability index (pdr5∆): 2.82 ± 0.051
protein stability index (san1∆): 2.88 ± 0.063
protein stability index (ubr1∆): 3 ± 0.04

KKISSFKSLIDEDLLDT [YGL172W/NUP49]
protein stability index (doa10∆): 3.08 ± 0.097
protein stability index (pdr5∆): 3.21 ± 0.079
protein stability index (san1∆): 3.12 ± 0.062
protein stability index (ubr1∆): 3.14 ± 0.063

QLSLDASKTNLRLTDVT [GAL11]
protein stability index (doa10∆): 2.85 ± 0.058
protein stability index (pdr5∆): 3.23 ± 0.066
protein stability index (san1∆): 3.06 ± 0.047
protein stability index (ubr1∆): 3.16 ± 0.047

IDMGEDKENVPVEKVKE [DPB4]
protein stability index (doa10∆): 3.41 ± 0.23
protein stability index (pdr5∆): 3.45 ± 0.14
protein stability index (san1∆): 3.29 ± 0.21
protein stability index (ubr1∆): 3.67 ± 0.13

HFRAPSRILYKAIRGMV [RPL16B]
protein stability index (doa10∆): 2.19 ± 0.096
protein stability index (pdr5∆): 2.67 ± 0.059
protein stability index (san1∆): 2.14 ± 0.1
protein stability index (ubr1∆): 2.21 ± 0.062

VRQLYKGKKYQPKDLRA [RPL35A]
protein stability index (doa10∆): 3.28 ± 0.21
protein stability index (pdr5∆): 3.17 ± 0.12
protein stability index (san1∆): 2.59 ± 0.098
protein stability index (ubr1∆): 2.92 ± 0.12

GLHPFEVAQLGSLACDT [RPB4]
protein stability index (doa10∆): 1.9 ± 0.15
protein stability index (pdr5∆): 2.25 ± 0.18
protein stability index (ubr1∆): 2.33 ± 0.08

GAAANNNDQKRQQAYKT [YJL041W/NSP1]
protein stability index (doa10∆): 3.06 ± 0.063
protein stability index (pdr5∆): 3.02 ± 0.056
protein stability index (san1∆): 3.09 ± 0.042
protein stability index (ubr1∆): 3.22 ± 0.066

SIATKRFDAQTGSDREV [RPT3]
protein stability index (doa10∆): 3.28 ± 0.13
protein stability index (pdr5∆): 3.17 ± 0.1
protein stability index (san1∆): 3.17 ± 0.077
protein stability index (ubr1∆): 3.48 ± 0.11
